These results are taken from US7960513B2, “Antibody against a human ADAM protease” (Monash University, priority 2004, dated 2011).

Entries after “also recorded” stand apart in the source; their conditions may differ.

One assay has as its target T1, EphA3/ephrin-A5 complex (Homo sapiens, UniProt P29320+P52803).
T1 construct: incubated with Fc-tagged ectodomains of Eph-A3, EphB2, EphB4 and ephrin-A2, ephrin-A5, ephrin-B2 (R&D systems)
T1 sequence (P29320 21-541 limits assumed): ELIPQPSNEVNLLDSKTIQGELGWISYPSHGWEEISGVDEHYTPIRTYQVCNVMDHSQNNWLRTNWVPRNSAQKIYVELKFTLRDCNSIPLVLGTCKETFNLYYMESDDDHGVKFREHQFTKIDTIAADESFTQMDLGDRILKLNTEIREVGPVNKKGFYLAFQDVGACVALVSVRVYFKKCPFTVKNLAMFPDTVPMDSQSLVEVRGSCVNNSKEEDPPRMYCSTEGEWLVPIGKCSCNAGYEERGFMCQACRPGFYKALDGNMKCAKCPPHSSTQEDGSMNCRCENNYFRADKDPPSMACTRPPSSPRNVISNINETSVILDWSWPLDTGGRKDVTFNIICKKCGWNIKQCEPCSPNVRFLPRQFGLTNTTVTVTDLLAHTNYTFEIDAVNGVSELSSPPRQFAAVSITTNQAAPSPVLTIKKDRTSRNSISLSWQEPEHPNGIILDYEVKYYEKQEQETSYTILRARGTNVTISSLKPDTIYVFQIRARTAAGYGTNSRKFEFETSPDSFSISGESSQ
T1 sequence (P52803 21-203 limits assumed): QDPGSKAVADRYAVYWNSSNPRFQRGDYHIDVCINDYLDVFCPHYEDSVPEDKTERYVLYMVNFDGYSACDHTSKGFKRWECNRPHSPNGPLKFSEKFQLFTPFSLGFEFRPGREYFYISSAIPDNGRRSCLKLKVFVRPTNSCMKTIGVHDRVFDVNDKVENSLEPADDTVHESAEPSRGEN
Description: In vitro binding (Protein-A pull-down) assay. The protocol:
(§1) Pull-down experiments were done as follows: ADAM10D+C, ADAM17D+C w.t. or the alanine mutants (˜15 μg) were incubated with Fc-tagged ectodomains of Eph-A3, EphB2, EphB4 and ephrin-A2, ephrin-A5, ephrin-B2 (R&D systems) at 4° C. for 30 min in 500 μL of binding buffer containing 10 mM HEPES (pH 7.4), 150 mM NaCl and 0.05% of Triton X-100. To test binding to the preformed EphA3/ephrin-A5 complex, 5 μg of the untagged ephrin-A5 was incubated with Fc tagged EphA3 for 30 min at 4° C. followed by the addition of ADAM10. The proteins were incubated for an additional 30 min., when Protein-A-Sepharose (Amersham) beads were added to the reaction mixture and shaken at 4° C. for 2h. The beads were then harvested by centrifugation, washed once with 500 μl of binding buffer and the bound proteins were separated on a 10-20% gradient polyacrylamide gel. The binding of the individual ADAM domains was carried out likewise using 15 μg of the disintegrin and 8 μg of the cysteine-rich domain.

A further assay concerns the target T2, EphB4/ephrin-B2 complex (Homo sapiens, UniProt P52799+P54760).
T2 construct: incubated with Fc-tagged ectodomains of Eph-A3, EphB2, EphB4 and ephrin-A2, ephrin-A5, ephrin-B2 (R&D systems); purchased R&D systems
Briefly: In vitro binding (Protein-A pull-down) assay. As to conditions: Protein-A capture. The procedure: as §1

A further assay deals with T3, ectodomain of EphA3 (Homo sapiens, UniProt P29320).
T3 construct: incubated with Fc-tagged ectodomains of Eph-A3, EphB2, EphB4 and ephrin-A2, ephrin-A5, ephrin-B2 (R&D systems); purchased R&D systems
T3 sequence (P29320 21-541 limits assumed): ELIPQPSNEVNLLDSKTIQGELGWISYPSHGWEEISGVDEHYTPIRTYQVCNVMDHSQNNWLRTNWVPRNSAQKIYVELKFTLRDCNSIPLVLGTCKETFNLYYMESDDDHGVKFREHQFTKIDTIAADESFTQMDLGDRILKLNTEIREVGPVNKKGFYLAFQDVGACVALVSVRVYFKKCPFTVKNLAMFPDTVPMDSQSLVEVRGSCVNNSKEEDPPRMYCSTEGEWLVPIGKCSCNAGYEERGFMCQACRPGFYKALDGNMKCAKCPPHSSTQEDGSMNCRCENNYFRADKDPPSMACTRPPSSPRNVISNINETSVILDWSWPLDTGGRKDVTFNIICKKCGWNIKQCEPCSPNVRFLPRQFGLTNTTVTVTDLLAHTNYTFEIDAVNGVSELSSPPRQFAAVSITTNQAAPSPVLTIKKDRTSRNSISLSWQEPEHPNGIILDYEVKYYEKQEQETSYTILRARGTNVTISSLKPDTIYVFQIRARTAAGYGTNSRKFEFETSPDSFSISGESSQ
Description: In vitro binding (Protein-A pull-down) assay. Conditions: EphA3-Fc alone, without ephrin. The protocol:
as §1

The target of another assay is T4, ephrin-A2 (Homo sapiens, UniProt O43921).
T4 construct: incubated with Fc-tagged ectodomains of Eph-A3, EphB2, EphB4 and ephrin-A2, ephrin-A5, ephrin-B2 (R&D systems); purchased R&D systems
T4 sequence (O43921 25-188 limits assumed): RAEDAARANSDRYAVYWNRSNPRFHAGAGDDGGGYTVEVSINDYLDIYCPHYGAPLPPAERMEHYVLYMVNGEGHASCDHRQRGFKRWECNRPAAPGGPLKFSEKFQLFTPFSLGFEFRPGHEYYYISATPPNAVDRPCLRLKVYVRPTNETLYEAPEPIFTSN
Description: In vitro binding (Protein-A pull-down) assay. As to conditions: ephrin-Fc captured on Protein A Sepharose. The protocol:
as §1

The next assay deals with T5, ephrin-A1 (Homo sapiens, UniProt P20827).
T5 sequence (P20827 19-182 limits assumed): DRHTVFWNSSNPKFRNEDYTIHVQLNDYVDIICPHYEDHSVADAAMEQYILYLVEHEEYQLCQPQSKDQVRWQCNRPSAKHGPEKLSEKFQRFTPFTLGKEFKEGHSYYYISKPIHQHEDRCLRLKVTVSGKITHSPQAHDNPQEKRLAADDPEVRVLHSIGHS
Briefly: In vitro binding (Protein-A pull-down) assay. As to conditions: ephrin-Fc captured on Protein A Sepharose.

The target in assay [1] is T6, EphA3/ephrin-A5 Fc complex (Homo sapiens, UniProt P29320+P52803).
T6 construct: Fc fusion proteins of the ephrin-A5 and EphA3 extracellular domains fused to the hinge and Fc region of human IgG1 were produced as described
T6 sequence (P29320 21-541 limits assumed): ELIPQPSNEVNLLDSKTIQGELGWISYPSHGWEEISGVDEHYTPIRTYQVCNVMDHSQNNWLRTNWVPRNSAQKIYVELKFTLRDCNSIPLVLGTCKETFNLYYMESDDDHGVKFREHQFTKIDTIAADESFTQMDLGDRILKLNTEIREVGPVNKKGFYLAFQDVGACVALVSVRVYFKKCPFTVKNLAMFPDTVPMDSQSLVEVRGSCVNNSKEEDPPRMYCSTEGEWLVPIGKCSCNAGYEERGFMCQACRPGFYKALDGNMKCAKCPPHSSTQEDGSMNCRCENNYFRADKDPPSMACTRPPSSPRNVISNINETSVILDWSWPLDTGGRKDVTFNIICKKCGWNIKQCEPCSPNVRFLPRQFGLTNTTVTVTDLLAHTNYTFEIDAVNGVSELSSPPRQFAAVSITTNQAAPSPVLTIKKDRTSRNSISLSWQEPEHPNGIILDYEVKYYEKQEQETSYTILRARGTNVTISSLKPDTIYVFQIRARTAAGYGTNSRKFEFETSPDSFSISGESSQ
T6 sequence (P52803 21-203 limits assumed): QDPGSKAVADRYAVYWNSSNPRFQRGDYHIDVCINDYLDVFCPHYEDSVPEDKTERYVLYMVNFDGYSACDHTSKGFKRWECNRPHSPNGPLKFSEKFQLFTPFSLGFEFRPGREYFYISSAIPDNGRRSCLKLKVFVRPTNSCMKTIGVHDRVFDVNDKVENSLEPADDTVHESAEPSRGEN
Briefly: HTRF / FRET assay of EphA3/ephrin-A5/ADAM10D+C complex formation. Format: binding. As to conditions: unlabelled protein at increasing concentrations, 320 nM complex. The protocol: FIG. 6. Fluorescence Energy Transfer (RET) analysis monitoring the formation of EphA3/ephrin-A5/ADAM10D+C complexes. • A) The proposed screening approach for inhibitors of the complex formation is based on a Homogeneous Time Resolved Fluorescence (HTRF™) Assay using a Eu^3+ chelate labeled donor and a XL665 labeled acceptor protein. Interactions between ADAM10 and its substrate, the EphA3/ephrinA5 complex are measured using (normalized) emission at 665 nm: the interaction brings the labels into proximity and triggers fluorescence resonance energy transfer (FRET), which initiates a chemical reaction cascade to produce an amplified fluorescent signal. […]
In this regard, screening or identification of inhibitors of complex formation is based on high-throughput homogeneous time resolved fluorescence (HTRF™) technology utilising donor and acceptor fluorescence labels that are conjugated to Fc-tagged proteins. An interaction between proteins brings the labels into proximity and triggers fluorescence resonance energy transfer (FRET), which initiates a chemical reaction cascade to produce an amplified fluorescent signal. […]
The proposed drug screening approach is based on homogeneous time resolved fluorescence HTRF™ technology utilising donor and acceptor fluorescence labels that are conjugated to Fc-tagged proteins. […]

T2 sequence (P52799 28-229 limits assumed): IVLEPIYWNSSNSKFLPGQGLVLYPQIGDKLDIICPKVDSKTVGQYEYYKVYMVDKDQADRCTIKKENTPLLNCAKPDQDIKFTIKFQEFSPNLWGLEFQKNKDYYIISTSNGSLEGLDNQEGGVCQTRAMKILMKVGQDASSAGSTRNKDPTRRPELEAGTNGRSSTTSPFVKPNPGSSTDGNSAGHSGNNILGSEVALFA
T2 sequence (P54760 16-539 limits assumed): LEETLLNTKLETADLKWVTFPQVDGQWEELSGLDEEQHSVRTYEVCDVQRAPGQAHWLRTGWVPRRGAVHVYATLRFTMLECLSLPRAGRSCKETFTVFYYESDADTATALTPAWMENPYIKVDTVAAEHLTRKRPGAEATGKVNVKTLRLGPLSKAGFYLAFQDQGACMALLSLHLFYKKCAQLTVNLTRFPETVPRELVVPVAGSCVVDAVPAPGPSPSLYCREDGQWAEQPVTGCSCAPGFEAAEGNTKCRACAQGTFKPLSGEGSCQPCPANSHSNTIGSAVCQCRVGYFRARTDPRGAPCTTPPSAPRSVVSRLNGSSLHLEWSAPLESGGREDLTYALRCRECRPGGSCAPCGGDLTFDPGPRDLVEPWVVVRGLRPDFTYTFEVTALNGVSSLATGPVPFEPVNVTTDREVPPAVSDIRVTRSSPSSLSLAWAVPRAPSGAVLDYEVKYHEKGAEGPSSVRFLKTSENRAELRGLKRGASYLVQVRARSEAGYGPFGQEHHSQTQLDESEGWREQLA

B1: ADAM10D+C: recombinant bovine Adam10 disintegrin and cysteine-rich domains (residues 455-646), Fc tag removed (protein)
chain: SGQPICGNGMVEQGEECDCGYSDQCKDECCYDANQPEGKKCKLKPGKQCSPSQGPCCTAHCAFKSKTEKCRDDSDCAKEGICNGITALCPASDPKPNFTDCNRHTQVCINGQCAGSICEKHGLEECTCASSDGKDDKELCHVCCMKKMEPSTCASTGSVQWNKYFLGRTITLQPGSPCNDFRGYCDVFMRCR
As to B1, the “binding to EphA3/ephrin-A5 complex” value with EphA3/ephrin-A5 complex (EphA3-Fc plus untagged ephrin-A5) was “readily bound and formed a stable complex; also recorded: binds”. Also, the “amount of EphA3-bound (complexed) ephrin-A5” value with EphA3/ephrin-A5 complex (single-chain ephrin-A5 lacking Fc, captured via EphA3-Fc) was “notably increased”. Besides, the “binding to EphB4/ephrin-B2 complex” value in the assay with EphB4/ephrin-B2 complex was “little or no association; also recorded: does not bind”. Further, in the assay with ectodomain of EphA3, the “binding to EphA3 ectodomain” value is “no interaction was seen”. Also, in the assay with ephrin-A2, the “binding to ephrin-A2” value is “bound”. Besides, the “binding to ephrin-A1” value with ephrin-A1 is reported as “bound”. The “inhibition of the labelled ADAM10D+C - EphA3/ephrin-A5 interaction (A665/A620)” value in assay [1] is listed as “competitive inhibitor”.
